Five molecules from patent US20200087347 (published 2020) can be followed below.

Where no end group is shown, it is not given here. Side-chain parts run from the residue outwards. [ ]: non-standard residue; d: D form. The star is where a group is joined. BODIPY(FL) = CC1=CC(C)=[N+]2C1=Cc1ccc(CCC(=O)*)n1[B-]2(F)F; NMeK = CN[C@@H](CCCCN)C(=O)O; BDPFL = dye Where only a bound is given, the exact number is not on record here.

The target in the first experiment is T1, integrin α5β1 (human, UniProt P08648). Put plainly: competition.
T1 sequence (P08648 42-1049, chain 1 of 2): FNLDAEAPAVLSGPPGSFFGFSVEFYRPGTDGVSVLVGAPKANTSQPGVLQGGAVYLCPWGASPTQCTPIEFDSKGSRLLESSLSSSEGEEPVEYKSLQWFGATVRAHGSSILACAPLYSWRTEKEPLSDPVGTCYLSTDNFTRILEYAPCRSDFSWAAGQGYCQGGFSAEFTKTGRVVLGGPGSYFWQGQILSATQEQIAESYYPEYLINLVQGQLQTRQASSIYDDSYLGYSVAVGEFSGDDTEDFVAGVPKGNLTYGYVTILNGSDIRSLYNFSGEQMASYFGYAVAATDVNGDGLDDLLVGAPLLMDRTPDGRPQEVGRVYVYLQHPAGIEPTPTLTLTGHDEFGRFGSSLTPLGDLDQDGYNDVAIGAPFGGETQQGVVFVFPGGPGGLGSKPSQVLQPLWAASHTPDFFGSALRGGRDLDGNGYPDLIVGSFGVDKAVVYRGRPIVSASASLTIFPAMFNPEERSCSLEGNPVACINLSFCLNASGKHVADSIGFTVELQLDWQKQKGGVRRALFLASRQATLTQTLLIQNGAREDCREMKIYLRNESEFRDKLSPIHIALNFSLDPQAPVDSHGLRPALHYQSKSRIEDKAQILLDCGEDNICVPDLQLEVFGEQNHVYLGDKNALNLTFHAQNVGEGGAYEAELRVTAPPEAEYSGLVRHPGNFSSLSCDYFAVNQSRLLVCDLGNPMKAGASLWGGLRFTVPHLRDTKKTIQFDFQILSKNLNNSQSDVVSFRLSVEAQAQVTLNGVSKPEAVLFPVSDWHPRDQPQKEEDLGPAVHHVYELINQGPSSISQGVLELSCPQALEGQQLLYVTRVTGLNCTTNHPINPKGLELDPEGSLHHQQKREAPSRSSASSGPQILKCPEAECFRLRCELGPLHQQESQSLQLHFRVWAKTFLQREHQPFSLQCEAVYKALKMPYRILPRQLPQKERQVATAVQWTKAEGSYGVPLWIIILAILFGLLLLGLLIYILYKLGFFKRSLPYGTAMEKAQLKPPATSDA
T1 sequence (chain, as listed by the source, chain 2 of 2): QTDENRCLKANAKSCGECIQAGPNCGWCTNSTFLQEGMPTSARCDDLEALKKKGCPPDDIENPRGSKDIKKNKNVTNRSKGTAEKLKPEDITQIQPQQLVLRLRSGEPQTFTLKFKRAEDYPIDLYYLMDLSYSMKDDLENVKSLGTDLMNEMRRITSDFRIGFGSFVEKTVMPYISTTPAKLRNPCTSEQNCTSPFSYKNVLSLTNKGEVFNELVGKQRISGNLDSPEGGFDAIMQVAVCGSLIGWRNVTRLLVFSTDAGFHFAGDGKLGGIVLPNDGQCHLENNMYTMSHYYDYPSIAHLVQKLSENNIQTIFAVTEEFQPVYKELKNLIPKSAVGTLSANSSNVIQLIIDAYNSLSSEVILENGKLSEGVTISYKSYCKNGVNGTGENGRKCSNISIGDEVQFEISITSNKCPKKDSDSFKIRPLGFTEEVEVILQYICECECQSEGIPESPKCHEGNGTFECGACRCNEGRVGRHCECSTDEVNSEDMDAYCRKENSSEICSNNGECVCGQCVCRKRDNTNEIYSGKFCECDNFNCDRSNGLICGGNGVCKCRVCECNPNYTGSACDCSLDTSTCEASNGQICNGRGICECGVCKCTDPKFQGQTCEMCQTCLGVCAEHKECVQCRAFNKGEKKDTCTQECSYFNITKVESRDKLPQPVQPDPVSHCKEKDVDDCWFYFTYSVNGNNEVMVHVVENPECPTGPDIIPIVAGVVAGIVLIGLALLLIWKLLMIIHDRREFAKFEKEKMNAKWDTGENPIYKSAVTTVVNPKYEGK
What is called IC50 is the concentration at which inhibition is half-maximal. Low readings indicate inhibition by little substance, high ones a need for much substance. For the molecule cyclo(RGDL[dP][NMeK](BDPFL)GL) [Compound 9a (9-BDPFL)], the concentration for half-maximal inhibition (IC50) was found to be 1470 nM.

Consider cyclo(RGDL[dP][NMeK]([Gly-Pro-Pro-Pro-Pro-Pro-Pro-Gly-BDPFL])GL) [Compound 9f (9-G(P)6G-BDPFL)], for which the IC50 was 782 nM.

As for RGDL[dP][NMeK]([(PEG)5-BODIPY(FL)])GL (not fully specified (bridges); also: cyclic, closure not given here) [Compound 9d (9-(PEG)5-BDPFL)], the IC50 came out at 95 nM.

Consider RGDL[dP][NMeK]([Gly-Pro-Pro-Pro-Gly-BODIPY(FL)])GL (not fully specified (bridges); also: cyclic, closure not given here) [Compound 9e (9-G(P)3G-BDPFL)], for which the IC50 turned out to be 979 nM.

Another experiment concerns the target T2, integrin αvβ3 (human, UniProt P06756).
T2 chain 1: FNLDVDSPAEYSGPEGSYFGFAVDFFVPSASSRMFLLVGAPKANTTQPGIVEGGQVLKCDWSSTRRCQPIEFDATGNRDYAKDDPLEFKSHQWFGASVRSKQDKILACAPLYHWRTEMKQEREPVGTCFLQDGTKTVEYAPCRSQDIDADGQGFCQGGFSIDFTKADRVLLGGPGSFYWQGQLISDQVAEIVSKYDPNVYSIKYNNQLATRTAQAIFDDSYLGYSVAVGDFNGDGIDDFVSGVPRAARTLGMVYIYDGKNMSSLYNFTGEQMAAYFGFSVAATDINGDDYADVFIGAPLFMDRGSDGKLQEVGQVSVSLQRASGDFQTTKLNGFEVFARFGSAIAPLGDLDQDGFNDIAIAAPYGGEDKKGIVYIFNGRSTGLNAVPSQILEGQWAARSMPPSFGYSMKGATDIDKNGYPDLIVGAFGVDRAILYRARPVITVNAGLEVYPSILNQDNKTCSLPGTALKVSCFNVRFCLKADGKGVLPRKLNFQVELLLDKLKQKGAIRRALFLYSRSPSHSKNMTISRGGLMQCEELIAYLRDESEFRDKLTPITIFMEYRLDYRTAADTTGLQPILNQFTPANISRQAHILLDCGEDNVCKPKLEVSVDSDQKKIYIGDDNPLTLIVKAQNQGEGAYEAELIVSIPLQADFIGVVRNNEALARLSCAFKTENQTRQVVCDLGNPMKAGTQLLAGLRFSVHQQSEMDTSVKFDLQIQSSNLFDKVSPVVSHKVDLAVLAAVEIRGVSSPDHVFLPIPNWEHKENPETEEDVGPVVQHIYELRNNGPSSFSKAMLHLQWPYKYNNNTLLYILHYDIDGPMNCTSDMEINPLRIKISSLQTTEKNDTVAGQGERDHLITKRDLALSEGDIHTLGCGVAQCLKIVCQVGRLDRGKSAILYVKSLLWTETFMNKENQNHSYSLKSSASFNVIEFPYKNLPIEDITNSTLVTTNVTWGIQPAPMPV
T2 chain 2: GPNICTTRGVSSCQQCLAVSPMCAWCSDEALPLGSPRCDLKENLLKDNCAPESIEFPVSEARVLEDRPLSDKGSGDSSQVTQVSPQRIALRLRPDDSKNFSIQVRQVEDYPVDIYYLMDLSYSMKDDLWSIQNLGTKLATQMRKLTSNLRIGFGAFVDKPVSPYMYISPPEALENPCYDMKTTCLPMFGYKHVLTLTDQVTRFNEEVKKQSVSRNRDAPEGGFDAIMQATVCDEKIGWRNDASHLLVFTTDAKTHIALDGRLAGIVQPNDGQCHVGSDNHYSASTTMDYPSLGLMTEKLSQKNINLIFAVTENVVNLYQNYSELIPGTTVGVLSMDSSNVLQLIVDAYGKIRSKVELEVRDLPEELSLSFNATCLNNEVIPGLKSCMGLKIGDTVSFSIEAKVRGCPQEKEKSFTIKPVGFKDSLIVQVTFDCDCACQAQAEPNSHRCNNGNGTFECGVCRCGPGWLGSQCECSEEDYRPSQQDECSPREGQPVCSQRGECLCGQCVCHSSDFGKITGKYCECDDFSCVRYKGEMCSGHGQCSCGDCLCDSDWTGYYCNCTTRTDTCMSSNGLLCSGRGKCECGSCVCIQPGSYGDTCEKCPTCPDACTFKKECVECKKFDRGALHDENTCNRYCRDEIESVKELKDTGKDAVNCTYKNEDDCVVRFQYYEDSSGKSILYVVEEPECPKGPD
Put plainly: competition.
For the molecule cyclo(RGDL[dP][NMeK](Ac)GL) [Compound 9], the concentration for half-maximal inhibition (IC50) was found to be 423 nM.

In a further experiment the target is T3, integrin αvβ8 (human, UniProt P06756).
T3 chain 1: T2 chain 1
T3 chain 2: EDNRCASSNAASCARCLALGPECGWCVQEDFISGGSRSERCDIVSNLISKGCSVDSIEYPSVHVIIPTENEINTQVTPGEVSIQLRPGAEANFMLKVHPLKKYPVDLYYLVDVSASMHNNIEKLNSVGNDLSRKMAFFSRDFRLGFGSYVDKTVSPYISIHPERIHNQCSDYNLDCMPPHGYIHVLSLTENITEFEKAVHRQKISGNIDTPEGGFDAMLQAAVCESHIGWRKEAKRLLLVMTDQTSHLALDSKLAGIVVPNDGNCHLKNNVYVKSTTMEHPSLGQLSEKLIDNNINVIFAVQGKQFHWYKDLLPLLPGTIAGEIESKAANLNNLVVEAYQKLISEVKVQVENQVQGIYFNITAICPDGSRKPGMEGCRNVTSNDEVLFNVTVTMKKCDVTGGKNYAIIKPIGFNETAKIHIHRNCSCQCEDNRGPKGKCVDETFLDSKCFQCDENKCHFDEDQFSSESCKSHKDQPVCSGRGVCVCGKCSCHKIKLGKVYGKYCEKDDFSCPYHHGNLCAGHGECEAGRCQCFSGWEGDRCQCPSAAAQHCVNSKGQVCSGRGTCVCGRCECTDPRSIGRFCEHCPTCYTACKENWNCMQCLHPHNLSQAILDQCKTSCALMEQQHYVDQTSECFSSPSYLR
The experiment in a line: competition.
cyclo(RGDL[dP][NMeK](BDPFL)GL) [Compound 9a (9-BDPFL)] displayed a half-inhibitory concentration (IC50) of 0.66 nM.

Molecule cyclo(RGDL[dP][NMeK]([Gly-Pro-Pro-Pro-Pro-Pro-Pro-Gly-BDPFL])GL) [Compound 9f (9-G(P)6G-BDPFL)] gave an IC50 of 7.98 nM.

Molecule RGDL[dP][NMeK]([(PEG)5-BODIPY(FL)])GL (not fully specified (bridges); also: cyclic, closure not given here) [Compound 9d (9-(PEG)5-BDPFL)] came in with a half-inhibitory concentration (IC50) of 1.25 nM.

Turning to RGDL[dP][NMeK]([Gly-Pro-Pro-Pro-Gly-BODIPY(FL)])GL (not fully specified (bridges); also: cyclic, closure not given here) [Compound 9e (9-G(P)3G-BDPFL)], the half-inhibitory concentration (IC50) stood at 2.07 nM.

A further experiment deals with T1, integrin α5β1. Put plainly: competition. The source holds these as a separate data set.
Consider cyclo(RGDL[dP][NMeK](Ac)GL) [Compound 9], for which the half-maximal inhibitory concentration (IC50) was more than 1000 nM.

The target of a further experiment is T2, integrin αvβ3. Put plainly: competition. The source holds these as a separate data set.
Take cyclo(RGDL[dP][NMeK](BDPFL)GL) [Compound 9a (9-BDPFL)]: the concentration for half-maximal inhibition (IC50) came out at 676 nM.

In turn, cyclo(RGDL[dP][NMeK]([Gly-Pro-Pro-Pro-Pro-Pro-Pro-Gly-BDPFL])GL) [Compound 9f (9-G(P)6G-BDPFL)] displayed a 50% inhibitory concentration (IC50) of 42 nM.

Molecule RGDL[dP][NMeK]([(PEG)5-BODIPY(FL)])GL (not fully specified (bridges); also: cyclic, closure not given here) [Compound 9d (9-(PEG)5-BDPFL)] gave an IC50 of 98 nM.

In turn, RGDL[dP][NMeK]([Gly-Pro-Pro-Pro-Gly-BODIPY(FL)])GL (not fully specified (bridges); also: cyclic, closure not given here) [Compound 9e (9-G(P)3G-BDPFL)] displayed an IC50 of 585 nM.

Another experiment addresses T4, integrin αvβ5 (human, UniProt P06756).
T4 chain 1: T2 chain 1
T4 chain 2: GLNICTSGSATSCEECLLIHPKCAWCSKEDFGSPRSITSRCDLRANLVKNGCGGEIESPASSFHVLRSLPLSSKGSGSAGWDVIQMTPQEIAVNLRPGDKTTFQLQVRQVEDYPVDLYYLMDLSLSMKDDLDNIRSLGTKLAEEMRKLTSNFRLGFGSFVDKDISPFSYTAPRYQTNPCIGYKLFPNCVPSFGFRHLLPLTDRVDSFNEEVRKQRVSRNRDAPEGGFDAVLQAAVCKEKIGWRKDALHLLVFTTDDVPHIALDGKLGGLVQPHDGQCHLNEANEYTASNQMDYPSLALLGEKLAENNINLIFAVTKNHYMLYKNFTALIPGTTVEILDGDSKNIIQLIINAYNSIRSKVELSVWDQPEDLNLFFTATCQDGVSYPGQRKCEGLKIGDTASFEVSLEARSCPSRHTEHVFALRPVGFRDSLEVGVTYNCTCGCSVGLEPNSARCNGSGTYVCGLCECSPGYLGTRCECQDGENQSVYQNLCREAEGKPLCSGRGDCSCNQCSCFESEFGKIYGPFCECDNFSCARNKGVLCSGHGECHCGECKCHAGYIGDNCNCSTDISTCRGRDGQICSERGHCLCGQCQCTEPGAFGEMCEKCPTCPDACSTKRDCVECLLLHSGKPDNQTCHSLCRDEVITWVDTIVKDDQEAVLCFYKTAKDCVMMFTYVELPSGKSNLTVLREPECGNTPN
The experiment in a line: competition.
cyclo(RGDL[dP][NMeK](Ac)GL) [Compound 9] displayed an IC50 of more than 1000 nM.

In a further experiment the target is T3, integrin αvβ8. Put plainly: competition. This is another data set of the same source.
The molecule cyclo(RGDL[dP][NMeK](Ac)GL) [Compound 9] had a 50% inhibitory concentration (IC50) of 6 nM.

A further experiment addresses T5, integrin αvβ6 (human, UniProt P06756).
T5 chain 1: T2 chain 1
T5 chain 2: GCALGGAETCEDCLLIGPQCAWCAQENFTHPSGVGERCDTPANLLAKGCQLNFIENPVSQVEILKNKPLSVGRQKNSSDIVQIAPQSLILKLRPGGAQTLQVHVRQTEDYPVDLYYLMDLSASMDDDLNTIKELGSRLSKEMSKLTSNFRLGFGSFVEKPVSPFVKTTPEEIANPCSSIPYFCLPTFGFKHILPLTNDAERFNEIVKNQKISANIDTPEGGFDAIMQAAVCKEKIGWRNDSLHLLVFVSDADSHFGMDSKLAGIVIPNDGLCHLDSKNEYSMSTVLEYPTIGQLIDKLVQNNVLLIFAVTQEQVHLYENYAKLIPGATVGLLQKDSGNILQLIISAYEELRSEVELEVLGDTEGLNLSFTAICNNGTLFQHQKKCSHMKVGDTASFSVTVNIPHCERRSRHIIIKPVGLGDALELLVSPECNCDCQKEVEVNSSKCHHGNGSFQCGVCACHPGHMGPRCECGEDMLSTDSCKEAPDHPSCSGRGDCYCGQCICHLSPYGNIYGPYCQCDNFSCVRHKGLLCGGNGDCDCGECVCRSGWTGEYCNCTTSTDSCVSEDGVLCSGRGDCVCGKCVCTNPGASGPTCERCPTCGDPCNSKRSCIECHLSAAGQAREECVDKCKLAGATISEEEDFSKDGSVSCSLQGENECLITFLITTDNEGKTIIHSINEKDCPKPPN
The experiment in a line: competition.
Take cyclo(RGDL[dP][NMeK](BDPFL)GL) [Compound 9a (9-BDPFL)]: the IC50 was 94 nM.

Turning to cyclo(RGDL[dP][NMeK]([Gly-Pro-Pro-Pro-Pro-Pro-Pro-Gly-BDPFL])GL) [Compound 9f (9-G(P)6G-BDPFL)], the IC50 was 453 nM.

Regarding RGDL[dP][NMeK]([(PEG)5-BODIPY(FL)])GL (not fully specified (bridges); also: cyclic, closure not given here) [Compound 9d (9-(PEG)5-BDPFL)], the IC50 came to 247 nM.

In turn, RGDL[dP][NMeK]([Gly-Pro-Pro-Pro-Gly-BODIPY(FL)])GL (not fully specified (bridges); also: cyclic, closure not given here) [Compound 9e (9-G(P)3G-BDPFL)] yielded a concentration for half-maximal inhibition (IC50) of 247 nM.

A further experiment has as its target integrin αIIbβ3 (human, UniProt P08514). The experiment in a line: competition.
For cyclo(RGDL[dP][NMeK](Ac)GL) [Compound 9], the IC50 was more than 1000 nM.

The target of the next experiment is T4, integrin αvβ5. The experiment in a line: competition. The source holds these as a separate data set.
Regarding cyclo(RGDL[dP][NMeK](BDPFL)GL) [Compound 9a (9-BDPFL)], the concentration for half-maximal inhibition (IC50) is more than 10000 nM.

cyclo(RGDL[dP][NMeK]([Gly-Pro-Pro-Pro-Pro-Pro-Pro-Gly-BDPFL])GL) [Compound 9f (9-G(P)6G-BDPFL)] returned a concentration for half-maximal inhibition (IC50) of more than 10000 nM.

On to RGDL[dP][NMeK]([(PEG)5-BODIPY(FL)])GL (not fully specified (bridges); also: cyclic, closure not given here) [Compound 9d (9-(PEG)5-BDPFL)], for which the half-inhibitory concentration (IC50) was more than 10000 nM.

For RGDL[dP][NMeK]([Gly-Pro-Pro-Pro-Gly-BODIPY(FL)])GL (not fully specified (bridges); also: cyclic, closure not given here) [Compound 9e (9-G(P)3G-BDPFL)], the IC50 was more than 10000 nM.

Another experiment concerns the target T5, integrin αvβ6. Put plainly: competition. The source holds these as a separate data set.
With cyclo(RGDL[dP][NMeK](Ac)GL) [Compound 9], the IC50 was found to be 201 nM.
